The text below walks through data of paper PMC7786285 (Frontiers in Immunology, 2020).

This assay addresses T1, EGFR-ECD-Fc chimera (Homo sapiens, UniProt P00533).
T1 construct: extracellular domain of the epidermal growth factor receptor, as Fc chimera; No catalogue number printed; detected through its Fc with a goat anti-human IgG Fc PE antibody; also called EGFR-Fc chimera; EGFR-Fc; source: bought: R&D
The assay can be described thus: flow cytometry on cells; yeast cells displaying chimeric Fabs stained with EGFR-ECD-Fc chimera (100, 10 and 1 nM; sorting 250 nM down to 1 nM), detected with goat anti-human IgG Fc PE. The note with it: one partner purified. (A flow cytometer gives signals particle by particle.)

B1: FEB4 VH paired with the VL of H1, Fab displayed on yeast (Fab, V domains shown)
VH: AVTLDESGGGLQTPGGALSLVCKASGFTFSSHGMLWVRQAPGKGLEFVAGISTDGSSTSYGAPVKGRATISRDNGQSTVRLQLNNLRAEDTGTYYCAKDAYRCRNCAEDIDAWGHGTEVIVSS
VL: ALTQPSSVSANPGETVKITCSGGYSYYGWIQQKSPGSAPVTLIYNNDNRPSGIPSRFSGSTSGSTSTLTITGVQAEDEAVYYCGSYDGSAGIFGAGTTLTVL
As for B1, the binding result is “binds”.

B2: FEB4 VH paired with the VL of H3, Fab displayed on yeast (Fab, V domains shown)
VH: AVTLDESGGGLQTPGGALSLVCKASGFTFSSHGMLWVRQAPGKGLEFVAGISTDGSSTSYGAPVKGRATISRDNGQSTVRLQLNNLRAEDTGTYYCAKDAYRCRNCAEDIDAWGHGTEVIVSS
VL: ALTQPSSVSANPGETVEITCSGGGSNSYYGWYQQKAPGSAPVTVIYDNTNRPSNIPSRFSGSLSDSTNTLTITGVQADDEAVYFCGNEDNTDSYVGIFGAGTTLTVL
As for B2, the binding result is recorded as “binds”.
